Source: a protein production outcome set (Wang et al. 2014)

Test: label from the status in PepcDB records
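Note: failed if final PepcDB status was selected cloned or expressed and not failed if soluble or beyond.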

MSDMFLPARMRKLKIITLDQYSDSVVRSLHEEGVTQIDDISERIQQDAEWRQILKPSRATPYTGRVSSLLMKTSGILDFLGSVAAEEKGLRDTIREFINPPIFEKREVEELDTESLIERAEETLGRVESETRVMEEKLNELDSERSAVESSLSVAEKLKDFDIDFSDLQDSEYITGIAGRITAENLPELRDKLADITDELVISDREGENKAERILIIVTLKKHADSIASVLRRMEFERFEISELQGRPSEIISSSKTRLEEISRERKEIISKLRDINAEWEDELLVLREQLEIEKERNEVFSLFGETRKTVMLEAWVPLKEADRVIAVVEESSEGTALTDLEDPDPEEVPVLLDNPRFAKPYETFVEMYSPLKYNEIDPTIFMAFVFPFFFGFCLTDAGYGIIDALIGFILYRGLGKVNNFMRNFGIIMMSCGVWAFILGMVTNGFIGDFFPRFFNITLPTVIPAIDAFVNPQNILIMALTVGVLHINFGLILGARNNIRLGNMREALGSQIVWLILELGIILYLVGGMIFGAPLIILAFAMLLYYNGLFGLMDVSGFLGTLLSYARLLALCLSTGGIAMTVNILTGLSYEMIPVIGVVLAPIIFVFGHIANNAFQSLGAFINSLRLHYVEFFAQFYMGGKNKFNAFRAERNFTKIRR
protein production: failed

MSDMGVIVKTNARALIPLIGVFGSYIILHGHLTPGGGFQGGATIVGTALLFLIAFGVDEAKKRINKDLYSALEGIGGLVFLGAAMLGLSVAFFYNILWHKGPLFNGRPGTLLSAGFLPIMNLGVGLKVFTGLVSAVFALALFRRWKE
protein production: failed

MSDNAKHHRDGHLVASGLQDRAARTPQHEGFLGPDRPWHLSFSLLLAGSFVLFSWWAFDYAGSGANKVILVLATVVGMFMAFNVGGNDVANSFGTSVGAGTLTMKQALLVAAIFEVSGAVIAGGDVTETIRSGIVDLSGVSVDPRDFMNIMLSALSAAALWLLFANRMGYPVSTTHSIIGGIVGAAIALGMVSGQGGAALRMVQWDQIGQIVVSWVLSPVLGGLVSYLLYGVIKRHILLYNEQAERRLTEIKKERIAHRERHKAAFDRLTEIQQIAYTGALARDAVAANRKDFDPDELESDYYRELHEIDAKTSSVDAFRALQNWVPLVAAAGSMIIVAMLLFKGFKHMHLGLTTMNNYFIIAMVGAAVWMATFIFAKTLRGESLSRSTFLMFSWMQVFTASGFAFSHGSNDIANAIGPFAAILDVLRTGAIEGNAAVPAAAMVTFGVALCAGLWFIGRRVIATVGHNLTTMHPASGFAAELSAAGVVMGATVLGLPVSSTHILIGAVLGVGIVNRSTNWGLMKPIVLAWVITLPSAAILASVGLVALRAIF
protein production: failed

MSDNALTSSRRFGGIARLYGDSALAHFSQAHVCVVGVGGVGSWAVEALARTGIGRLTLIDLDNVAESNVNRQLHALTGDFGKAKVTALRERITQINPQCEVFEIEDFVTEDNLPEYFGKGFDFVIDAIDQVRVKAAMAAYFVERKQPFVLSGGAGGQKNPALIQTADLSRVTHDPLLANLRYTLRKRYGFSRDTKANMRVPCVYSTENIVPPQSREACSADAAPQGLSCAGYGASMLVTASFGLYCAQAAVEHIADKKLEHHHHHH
protein production: not failed

MSDPAIAVLPYGMKLGPALSGLPLDQVNWPLGCPERLVGKTLGDLGAGDHLLVYPRTGTHFQLSRGTRARISLIMAEPAVIHAKHYALLRVTWRRFHRVLTFNQAAVDRLPNARLLLFGSTWVPEWQSLTPEKVAQCSLIASAKRDSTGHKLRHAVVDWVRASDQDVAVLGRGYQPFDSKADGLAPYRYSVVIENVQERNYFSEKLLDAVFCETVPIYWGCPNIADFVDTTAMILCTREEDIRRAVAEMSAEDYAARLPALRALKQQLAPYAAHEARAARMILDELLEHHHHHH
protein production: not failed

MSDQPRPTVIITGASSGVGLYATKALANRGWHVIMACRNLEKAEQAAKNLQIPPEAYTILHLDLSSLASVRGFVESFRALNRPLRALVCNAAVYYPLLKEPIYSVDGYEITVATNHLGHFLLINLLLEDLKNSPESDKRLVILGTVTANRKELGGKIPIPAPPDLGNLEGFEKGFKKPIAMINGKPFKSGKAYKDSKLCNMLTARELHRRFHESTGIVFNSLYPGCVADTPLFRHHFPLFQKLFPLFQKKITGGYVSQELAGERVAMVVADPEFRQSGVHWSWGLEHHHHHH
protein production: not failed

MSDRFVIWAPSMHNEPAAKCGYCHGNKGGNMDQLFALDSWAHRYMNKMDVVKIENCTIGSFVEHMDVATYDRMCNMGFRRSGKFLYKVDPLRNCCRLYTIRTAPQELNMTKELKKCISRFATRITSEDYCPAAVASSDFVGKIVNAEMNSKTFYTRFEPALYSEEKYHLFVKYQEKVHQDYNNSPKSFKRFLCDTPFGPEAVLGTQESWEQLNNWQRMKPGEKLKHMGPVHECYYYEGKLIAITVSDILPSGISSVYFIWDPDYSKWSLGKLSALRDLAIIQRTNLQYYYLGYYIEDCPKMNYKANYGAEVLDVCHSKYIPLKPIQDMISRGKLFVIGEEETKVTKELYLVDSETGRGEGFPTDNVVKYKNIAEEIYGVGGCAFKSANESALELKELYGIPYEEEDLDTIYHLKEHNGHAPNGIPNVVPGLLPLWELLDIMQSGKITDLEGRLFLFEIETEGIRPLINFYSEPPNVKKRICDVIRLFGFETCMKAVILYSEQM
protein production: failed

MSDRGASAPSLPDDWPAHPDPILALNRMGSFDWDLDAGLFHMDAQAHEVFDLRPEEYDGRPESLALRVPTAESRRMDTIVARAMKDGSENYGTYFRLRRRDGTLRWTHTQGYIRRDETGRPRRIIGIVRDATQ
protein production: failed

MSDSDAMTDPNAVSYSNAIVVLCTAPDEASAQNLAAQVLGEKLAACVTLLPGATSLYYWEGKLEQEYEVQLLFKSNTDHQQALLTYIKQHHPYQTPELLVLPVRDGDKDYLSWLNASLL
protein production: failed

MSDSKFLRGTLIVTLGTFLVKFLGMIYVFPFHALVGTEGGTLYTYGYIPYTIFLSIATAGVPLAVSKFVSKYNALGDYKTSRRMFRSGMVMMIVTGVLSFLVLYMTAPLFAEAMLGKQSIHNNVGEVTTIIRLVSFALIVVPAASLIRGYFQGHQSMGPTTVSQIIEQIIRIVFLLAGSFIVIKVLGGTVATAVGVATFAAFVSAVGALGVLIWYWLKRKKYLDQYLIEQTVPESTVSTVQLFKELFAYAIPYVVIGLTIPLYQQIDTLTFNSIMQAIGQGDIAERALGIFTMWTHKLIMIPVSLATAFSLTLVPAITKSFTEKQYRYLKLQITQTFQANMFLTLPAVVGISSLAYPIYTAFYDSDPLGGQVLMWYAPVALLFALFTVTAAILQGINQQKHAIIALIMGVILKFVCNVIFIRYFGTVGAILATAVGFLASVWYTNQQIKKYAHYSFGVVYKRTFQIAVLTLIMVVAVKLSQWILSFMISPDGRIGALITVAICAGIGGLVYGLLAIRTGVLERVFGGEALDKIQRKLGSRFKIKLKSRGA
protein production: not failed

MSDSKFLRGTLIVTLGTFLVKFLGMIYVFPFHALVGTEGGTLYTYGYIPYTIFLSIATAGVPLAVSKFVSKYNALGDYKTSRRMFRSGMVMMIVTGVLSFLVLYMTAPLFAEAMLGKQSVHSNIGEVTTIIRLVSFALIVVPAASLIRGYFQGHQSMGPTTVSQIIEQIIRIVFLLAGSFIVIKVLGGTVATAVGVATFAAFVSAVGALGVLIWYWLKRKKHLDQYLIEQTALESTVSTVQLFKELFAYAIPYVVIGLTIPLYQQIDTLTFNSIMQAIGQGDIAERALGIFTMWTHKLIMIPVSLATAFSLTLVPAITKSFTEKQYRYLKLQITQTFQANMFLTLPAVVGISSLAYPIYTAFYDSDPLGGQVLMWYAPVALLFALFTVTAAILQGINQQKHAIIALIMGVILKFVCNVIFIRYFGTVGAILATAVGFLVSVWYTNQQIKKYAHYSFGVVYKRTFQIAVLTLVMVVTVKLSQWILSFMISPDGRMGALITVAICAGIGGLVYGLLAIRTGVLERVFGGEALEKIQRKLGNRFKIKLKSKGA
protein production: failed

MSDSWARSPSLSGYARQEGKFRVAIGAPRGDIPGQGDSSMSTQTAVLKKDITPQGSDYEIVRRAIEKISLDYRDQPSLEELAEEVGETPTGLQKLFTRWAGLSPKAFLQAVTLDHARRLLDSGMPLLETSFELGMSGPGRLHDLFVTHEAMSPGDYKTRGAGLTIRYGYHASPFGTALIMATDRGLAGLAFSDPGEERAAFADMSSRWPNAIYVEDLAATGPYAARIFDPTLWRPDQPLHVVMIGTDFQVRVWEALLQIPMGKARTYSSIAASIGAPSASRAVGAANGANPLSFVVPCHRAIGKSGDLTGYHWGLTRKRAILGWEAGQVSS
protein production: failed

MSDTGNYLGPFLVNDFGDRYLYQVNRNAFNSIGSDSLYASTYGESLFAEYQLNIIIGTDSGLFPTYVVNKGIPSGSRYLFIELPEVIERLSEEGILKELPPEVIIATPDTWEEIATDLQINEYVFIDAVRVNESIASSDANLPEYRDISWNINLNVRTLVHETHASINCTQYILRQLENLAENRVAFSRTLVDTFKGRTAVILAGGPSLREALPWVRENRDRLVLIAVSRISKILQSEQIVPHLVATVDPQKVSFEVSREMLYFADMEESPVLVSSYHASPLLVGQWGGRSAYTDSLFPWSTPLNIETHLYTGPTVSNYALSIAMNMGCETIVLAGVDLCFSREGHTHAAGSAENKVGPDLGQLSPRIETNGGWLADTNHGYAHSLEILKLQAELAVSKGHRLYNISLGAAKIPLIEYRPPSEIDLPEDTISTSALIDKYLPPPTSKARLSHYRKIKKELERAQHKFKEILSLSQEALECTDGLFGRNGKERSFRHKVQMDKIERKLDRRYGDFSLLVKQFGLKKFLSILRTPKEEQEWTDEQIEKATRDYYQAYMAGTIQLLAVTNSALSRIEARIEEEKSSPDCDLFISQWLRDGQPGRGRFWLRNHPVTAQCLSEAILGKFRELDDQFTHLMTDEQTIRMELLEKGYDLKHIRSKARLLFRRGEREELEAMAAGIASHPDREKAEPYLYFINGLIAELQQEPNRAIECYQHLLVDPPHPTTEDALRQIASLAIAGNDVENALLALECLSRMSPAYLSPYGEILKALGRYDEAFDAFNRYLSIAPKDVGTLVTLGILCRDAGLADTARDLFARVLENDPTNRVALSQLEGLAAPSND
protein production: failed

MSDVMTLKKSDIYNSDGSVKHTAFIHDKKTGKANTLYLKPVQQDLLQYHDWLVQENINSEWLFPSASHHNRHITEKQFYKVMARVGDLLSINYHYLGTHTMRKTGAYRVYTQSNYNIGLVMHLLNHSSEVMTLTYLGLDHASRETMLDQIDFG
protein production: failed

MSEAERAGASRQDKSGRLLAGRYRLGDVLGRGGMGTVWRAEDETLGRTVAVKELRFPTSIDEDEKRRLITRTLREAKAIARIRNNSAVTVFDVVDEDNRPWIVMELVEGKSLAEAIREDGLLEPKRAAEVGLAILDVLRAAHREGILHRDVKPSNVLIAEDGRVVLTDFGIAQVEGDPSITSTGMLVGAPSYISPERARGHKPGPAADLWSLGGLLYASVEGVPPYDKGSAIATLTAVMTEPLEEPKNAGPLRSVIYGLLAKDPEQRLDDAGARAMLNEVLHAPQPKEPEPVDATRVVALPPVPEEGTGKGSSGGSGAKRGEEAADRFRGALRSVRKAAGAATASAAARAKSGGTDVSGGTGAAGAGTSSAGSSASASAPAPGKPGAAAVGKPNPSSAGKPGSSAAATPAGTGSGVGQGTAVGGGGRESAVVGSNSGPVKPSSGWPVVPEPDRPPRSVPRAPLTDVVPRRTLVIVAVVVVLAVLGVVLALTLGGDDGSSKDNKGSSDTKAAASSGTSSGTTAGSSGTPKAGGSGSGSGGTHTDSGSKDNTGTGSDEQETDDSSSAGTASGSGGSDDSGSGSGDSSVKTYKSSQGFSIGLPKGWKYQSTGAAGARFTGPDGQKLLVGWTTTPKDDPVADWKNQEQYMVRSQYKRIRIEQVDYRGWNTADWEFTYTEGGTKYRSIDRGFVVNAHQGYALMYTAKASEWDSDLRKDTWQTLAKTFQPKS
protein production: failed

MSEAIRRAEAIDFGPDAQDLLWLSQDPVAVFDAEDRLRAANPAYCATFGCDPAEAPSWRQIMRRNHAMRQGALIVTEDFEGWLAAAAASRGRVPFRAYEAALHDGRWIWITETTAPDGRMLVHATDVTRLRSESLALRSERDAAQRASWTDPLTGVPNRRFVMDHLERWLDQQPRHGTFGTHALAVMDLDRFKQVNDLYGHTAGDAVLVSFCRITTDSIRSVDLFGRFGGEEFVLFMPNCPLETAQARLERLQEALAVAVVSPDLPALRCTFSAGLVAMRRDKDVHHAIRRADRLLYRAKADGRACVRAEI
protein production: failed
